Data set [1] deals with the molecule itself. The experiment in a line: SEC; Superdex 200 preparation grade, 130 mL column; 50 mM HEPES pH 7.5, 100 mM NaCl, later 50 mM Tris pH 7.5, 100 mM NaCl; elution compared with sizes expected for monomer, dimer, tetramer and octamer of BiuH. On the technique in general: Size exclusion chromatography separates by hydrodynamic size, large species first.
Data set [2] concerns the molecule itself. The experiment in a line: crystal structure; X-ray structures of BiuH and variants; sitting drops at 20 °C; SeMet SAD, variants by molecular replacement; homotetramer in the asymmetric unit.

B1: BiuH wild type (biuret hydrolase from Rhizobium leguminosarum bv. viciae 3841) (enzyme)
chain: not shown
notes: Biuret hydrolase BiuH, Rhizobium leguminosarum bv. viciae 3841; synthetic gene encoding a protein identical to UniProt Q1M7F4; Size exclusion followed Ni-NTA directly in the purification, so the tag was probably still on the protein; also called BiuH WT; biuret amidohydrolase; source: E. coli BL21 (λDE3), purified (Ni-NTA, SEC)
A word on the stoichiometry N: it is a count of units in the complex or per binding partner. As for B1, the “stoichiometry N” value in data set [1] was 4.

B2: BiuH Cys175Ser (enzyme)
chain: not shown
notes: Biuret hydrolase BiuH, Rhizobium leguminosarum bv. viciae 3841, UniProt Q1M7F4, with Cys175Ser; Crystallised without (6AZN) and with biuret (6AZQ); also called C175S; Cys175Ser BiuH variant; source: E. coli BL21 (λDE3), purified (Ni-NTA, SEC)
Turning to B2, the “stoichiometry N” value in data set [2] is 4.

B3: BiuH Lys142His (enzyme)
chain: not shown
notes: Biuret hydrolase BiuH, Rhizobium leguminosarum bv. viciae 3841, UniProt Q1M7F4, with Lys142His; also called K142H; source: E. coli BL21 (λDE3), purified (Ni-NTA, SEC)
Turning to B3, the “stoichiometry N” value in data set [2] was determined as 4.

B4: BiuH Lys142Ala with N-carbamoyl-D,L-aspartic acid (enzyme)
chain: not shown
modifications: acyl (thiocarbamate) covalent complex between the deaminated inhibitor N-carbamoyl-D,L-aspartic acid and Cys175
notes: Biuret hydrolase BiuH, Rhizobium leguminosarum bv. viciae 3841, UniProt Q1M7F4, with Lys142Ala; also called K142A; Lys142Ala variant; source: E. coli BL21 (λDE3), purified (Ni-NTA, SEC)
Take B4: the “stoichiometry N” value in data set [2] came to 4.

B5: SeMet BiuH wild-type (seleno-L-methionine biuret hydrolase from Rhizobium leguminosarum bv. viciae 3841) (enzyme)
chain: not shown
modifications: selenomethionine in place of methionine
notes: Biuret hydrolase BiuH, Rhizobium leguminosarum bv. viciae 3841; synthetic gene encoding a protein identical to UniProt Q1M7F4; His-tag removed in situ with chymotrypsin, without further purification; also called biuret amidohydrolase; source: E. coli BL21 (λDE3), minimal medium with SeMet, purified (Ni-NTA, SEC); in situ chymotrypsin treatment in the crystallisation drop
Regarding B5, in data set [2], the “stoichiometry N” value stood at 4.
